For 32 molecules, Kd, koff and kon results are on record in patent publication US20220033484A1 (FAPON BIOTECH, published 2022).

What is called Kd is the equilibrium constant for the complex coming apart. A word on the koff: it is a measure of how fast the partners let go of each other. The term kon denotes the second-order rate constant of association.

This test concerns the target T1, cTnI quality control product recombinant protein (human, UniProt P19429 2-210, limits assumed).
T1 construct: treated as the same molecule; also called cTnI antigen; cardiac troponin I
In words: AMC sensor, antibody immobilised, cTnI in solution. The method, then:
Operating process: it is equilibrated in Buffer 1 (PBST) for 60 s, the antibody is immobilized in an antibody solution for 300 s, incubated in Buffer 2 (PBST) for 180 s, bound in antigen solution for 420 s, dissociated in the Buffer 2 for 1200 s, 10 mM of GLY solution with pH 1.69 and Buffer 3 are used for sensor regeneration, and data is output. KD represents an equilibrium dissociation constant, namely the affinity; Kon represents a binding rate; and Kd is represents a dissociation rate.

Residue numbers refer to the chain shown, from its start.

T1 sequence (P19429 2-210 limits assumed): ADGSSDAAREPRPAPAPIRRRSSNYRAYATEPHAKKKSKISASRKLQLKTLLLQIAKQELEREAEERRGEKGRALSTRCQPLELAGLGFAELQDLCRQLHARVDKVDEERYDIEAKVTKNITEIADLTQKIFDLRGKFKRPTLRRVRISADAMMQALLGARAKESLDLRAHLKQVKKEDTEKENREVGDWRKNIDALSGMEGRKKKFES

B1: Mutation 1-21 (antibody, V domains shown)
VH: EVQLQQSGPELVKPGASVKMSCKASGYTFTLYVVHWVKQKPGQGLEWIGYIYPYIDGTKYNEKFKGKATLTVDKSSSTAFMELSSLTSEDSAVYYCARSGYGQYGLAWLAYWGQGTLVTVSA
VL: QAVVIQESALTTSPGETVTLTCRSSTGAATTSNYANWVQEKPDHLFTGLIGGSQNRAPGVPARFSGSLIGDKAALTITGAQTEDEAIYFCALVYSNQWVFGGGTKLTVLG
notes: Built as m8
Consider B1, for which the Kd came to 1.47 nM, the koff was determined as 5.71e-05 s⁻¹ and the on-rate constant (kon) came out at 38800 M⁻¹ s⁻¹.

B2: Mutation 1-36 (antibody, V domains shown)
VH: B1 VH with L31I, Y52N
VL: B1 VL with A29V, N33Q, Q54N, Q97H
notes: Built as m8; CDR-VL1 cell printed 'VQ', read as V/Q
For the molecule B2, the Kd amounted to 3.29 nM, the koff came to 0.000118 s⁻¹ and the kon came to 36000 M⁻¹ s⁻¹.

B3: Mutation 1-48 (antibody, V domains shown)
VH: B1 VH with L31I
VL: B1 VL with Q54N
notes: Built as m8
Take B3: the Kd was determined as 0.553 nM, the off-rate (koff) worked out at 4.32e-05 s⁻¹ and the kon turned out to be 78200 M⁻¹ s⁻¹.

B4: Mutation 1-23 (antibody, V domains shown)
VH: B1 VH with V34I, Q103G
VL: B1 VL with A29V, Q97H
notes: Built as m8
B4: the Kd stood at 8.49 nM, the off-rate (koff) came out at 0.000353 s⁻¹ and the kon was determined as 41600 M⁻¹ s⁻¹.

B5: Mutation 1-24 (antibody, V domains shown)
VH: B1 VH with L31I, I55L
VL: B1 VL with N33Q, Q54N, Q97N
notes: Built as m8
In the case of B5, the Kd was 0.63 nM, the off-rate (koff) turned out to be 3.62e-05 s⁻¹ and the kon was 57400 M⁻¹ s⁻¹.

B6: Mutation 1-32 (antibody, V domains shown)
VH: B1 VH with L31I, V34I, Y52N, I55L, Q103G
VL: B1 VL with Q54N, Q97H
notes: Built as m8
Turning to B6, the Kd was 0.765 nM, the koff was determined as 5.3e-05 s⁻¹ and the kon was 69300 M⁻¹ s⁻¹.

B7: Mutation 1-46 (antibody, V domains shown)
VH: B1 VH with L31I, V34L, Y52N, Q103N
VL: B1 VL with A29V, Q54N, Q97N
notes: Built as m8
For B7, the dissociation constant (Kd) came out at 5.41 nM, the koff was determined as 0.000217 s⁻¹ and the kon was determined as 40100 M⁻¹ s⁻¹.

B8: Mutation 1-40 (antibody, V domains shown)
VH: B1 VH with L31I, V34L, Y52Q, I55L, Q103N
VL: B1 VL with A29V, Q54N, Q97N
notes: Built as m8
Turning to B8, the Kd is 1.85 nM, the koff was found to be 4.05e-05 s⁻¹ and the on-rate (kon) was determined as 21900 M⁻¹ s⁻¹.

B9: Mutation 1-38 (antibody, V domains shown)
VH: B1 VH with L31I, V34I, Q103G
VL: B1 VL with A29V, N33Q, Q54N, Q97N
notes: Built as m8
Turning to B9, the Kd was 0.254 nM, the koff was 1.72e-05 s⁻¹ and the kon was found to be 67700 M⁻¹ s⁻¹.

B10: Mutation 1-26 (antibody, V domains shown)
VH: B1 VH with L31I, V34I, I55L, Q103G
VL: B1 VL with A29V, N33Q, Q54N
notes: Built as m8
As to B10, the Kd was determined as 0.465 nM, the koff amounted to 1.85e-05 s⁻¹ and the association rate constant (kon) is 39800 M⁻¹ s⁻¹.

B11: Mutation 1-39 (antibody, V domains shown)
VH: B1 VH with Y52Q, I55L
VL: B1 VL with A29V
notes: Built as m8
Turning to B11, the Kd came to 1.08 nM, the koff came out at 4.72e-05 s⁻¹ and the kon was found to be 43600 M⁻¹ s⁻¹.

B12: Mutation 1-33 (antibody, V domains shown)
VH: B1 VH with Q103G
VL: B1 VL with N33Q, Q97N
notes: Built as m8
For B12, the Kd worked out at 7.95 nM, the koff came out at 0.000331 s⁻¹ and the on-rate constant (kon) came out at 41700 M⁻¹ s⁻¹.

B13: Mutation 1-30 (antibody, V domains shown)
VH: B1 VH with L31I, Y52Q, I55L
VL: B1 VL with N33Q, Q54N
notes: Built as m8
Take B13: the Kd amounted to 3.71 nM, the koff came out at 0.00022 s⁻¹ and the kon was found to be 59500 M⁻¹ s⁻¹.

B14: Mutation 1-34 (antibody, V domains shown)
VH: B1 VH with V34L, Y52Q, Q103N
VL: B1 VL with Q54N, Q97H
notes: Built as m8
Regarding B14, the Kd is 3.41 nM, the off-rate (koff) amounted to 0.000198 s⁻¹ and the kon was found to be 58000 M⁻¹ s⁻¹.

B15: Mutation 1-47 (antibody, V domains shown)
VH: B1 VH with V34I, Y52N, I55L, Q103G
VL: B1 VL with N33Q, Q97H
notes: Built as m8
Regarding B15, the Kd turned out to be 3.05 nM, the koff is 0.000196 s⁻¹ and the kon was found to be 64100 M⁻¹ s⁻¹.

B16: Mutation 1-43 (antibody, V domains shown)
VH: B1 VH with L31I, V34L, Q103N
VL: B1 VL with N33Q
notes: Built as m8
B16: the equilibrium dissociation constant (Kd) came to 0.464 nM, the koff amounted to 3.38e-05 s⁻¹ and the kon amounted to 72900 M⁻¹ s⁻¹.

B17: Mutation 1-54 (antibody, V domains shown)
VH: B1 VH with L31I, Y52N, I55L
VL: B1 VL with Q54N
notes: Built as m8
B17: the Kd worked out at 7.78 nM, the koff was determined as 0.000321 s⁻¹ and the kon amounted to 41300 M⁻¹ s⁻¹.

B18: Mutation 1-45 (antibody, V domains shown)
VH: B1 VH with Y52Q, I55L
VL: B1 VL with A29V, N33Q
notes: Built as m8
Turning to B18, the Kd is 7.41 nM, the off-rate (koff) was 0.000286 s⁻¹ and the kon turned out to be 38600 M⁻¹ s⁻¹.

B19: Mutation 1-42 (antibody, V domains shown)
VH: B1 VH with Y52N, I55L
VL: B1 VL with A29V, Q54N, Q97H
notes: Built as m8
For the molecule B19, the Kd stood at 0.821 nM, the koff came to 6.8e-05 s⁻¹ and the kon came out at 82800 M⁻¹ s⁻¹.

B20: Mutation 1-35 (antibody, V domains shown)
VH: B1 VH with V34I, Y52Q, I55L, Q103G
VL: B1 VL
notes: Built as m8
Turning to B20, the Kd was found to be 0.832 nM, the koff stood at 4.31e-05 s⁻¹ and the kon is 51800 M⁻¹ s⁻¹.

B21: Mutation 1-29 (antibody, V domains shown)
VH: B1 VH with V34I, Y52Q, Q103G
VL: B1 VL with N33Q, Q97N
notes: Built as m8
For the molecule B21, the Kd worked out at 3.8 nM, the koff came out at 0.000207 s⁻¹ and the on-rate constant (kon) turned out to be 54500 M⁻¹ s⁻¹.

B22: Mutation 1-44 (antibody, V domains shown)
VH: B1 VH with L31I, V34I, Y52Q, Q103G
VL: B1 VL with Q54N, Q97N
notes: Built as m8
Regarding B22, the dissociation constant (Kd) was found to be 6.56 nM, the koff was determined as 0.000205 s⁻¹ and the kon is 31300 M⁻¹ s⁻¹.

B23: Mutation 1-22 (antibody, V domains shown)
VH: B1 VH with V34L, Q103N
VL: B1 VL with A29V, N33Q, Q54N, Q97N
notes: Built as m8
On to B23, for which the Kd is 0.106 nM, the koff came to 2.86e-06 s⁻¹ and the kon amounted to 27000 M⁻¹ s⁻¹.

B24: Mutation 1-50 (antibody, V domains shown)
VH: B1 VH with L31I, V34I, Q103G
VL: B1 VL with N33Q, Q97H
Take B24: the Kd is 4.61 nM, the dissociation rate constant (koff) was determined as 0.000233 s⁻¹ and the kon is 50500 M⁻¹ s⁻¹.

B25: Mutation 1-27 (antibody, V domains shown)
VH: B1 VH with I55L
VL: B1 VL with A29V, Q97H
notes: Built as m8
On to B25, for which the Kd was 0.353 nM, the koff was determined as 7.31e-06 s⁻¹ and the on-rate constant (kon) was found to be 20700 M⁻¹ s⁻¹.

B26: Mutation 1-51 (antibody, V domains shown)
VH: B1 VH with L31I, Y52Q
VL: B1 VL with N33Q, Q54N, Q97H
notes: Built as m8
On to B26, for which the Kd was 7.3 nM, the koff was 0.000223 s⁻¹ and the kon was determined as 30500 M⁻¹ s⁻¹.

B27: Mutation 1-52 (antibody, V domains shown)
VH: B1 VH with L31I, Y52N, I55L, Q103N
VL: B1 VL with N33Q, Q54N, Q97N
notes: Built as m8
In the case of B27, the Kd is 6.01 nM, the koff was found to be 0.000492 s⁻¹ and the kon was found to be 81800 M⁻¹ s⁻¹.

B28: Mutation 1-25 (antibody, V domains shown)
VH: B1 VH with L31I, V34L, I55L, Q103N
VL: B1 VL with Q97H
notes: Built as m8
With B28, the Kd came out at 6.6 nM, the koff is 0.00053 s⁻¹ and the kon was found to be 80300 M⁻¹ s⁻¹.

B29: Mutation 1-37 (antibody, V domains shown)
VH: B1 VH with L31I, V34L, Y52N, I55L, Q103N
VL: B1 VL with A29V, N33Q
notes: Built as m8
Consider B29, for which the dissociation constant Kd was found to be 5.21 nM, the koff was found to be 0.000208 s⁻¹ and the kon turned out to be 39900 M⁻¹ s⁻¹.

B30: Mutation 1-53 (antibody, V domains shown)
VH: B1 VH with L31I, Q103G
VL: B1 VL with A29V
notes: Built as m8
Regarding B30, the Kd was 8.38 nM, the koff came out at 0.000543 s⁻¹ and the on-rate constant (kon) was 64800 M⁻¹ s⁻¹.

B31: Mutation 1-28 (antibody, V domains shown)
VH: B1 VH with V34L, I55L, Q103N
VL: B1 VL with N33Q, Q54N
notes: Built as m8
Regarding B31, the Kd worked out at 1.76 nM, the koff was found to be 0.000158 s⁻¹ and the kon amounted to 89600 M⁻¹ s⁻¹.

B32: Mutation 1-31 (antibody, V domains shown)
VH: B1 VH with L31I, V34L, Y52N, Q103N
VL: B1 VL with N33Q, Q97N
notes: Built as m8
On to B32, for which the Kd came to 9.41 nM, the koff was found to be 0.00034 s⁻¹ and the kon stood at 36100 M⁻¹ s⁻¹.
